Data: US20210315933A1 (TCR2 THERAPEUTICS, published 2021)

Target: T1, human IL13Rα2 on cells (human, UniProt Q14627 27-380)
T1 construct: whole, on cells; also called hIL13Rα2
T1 sequence (looked up): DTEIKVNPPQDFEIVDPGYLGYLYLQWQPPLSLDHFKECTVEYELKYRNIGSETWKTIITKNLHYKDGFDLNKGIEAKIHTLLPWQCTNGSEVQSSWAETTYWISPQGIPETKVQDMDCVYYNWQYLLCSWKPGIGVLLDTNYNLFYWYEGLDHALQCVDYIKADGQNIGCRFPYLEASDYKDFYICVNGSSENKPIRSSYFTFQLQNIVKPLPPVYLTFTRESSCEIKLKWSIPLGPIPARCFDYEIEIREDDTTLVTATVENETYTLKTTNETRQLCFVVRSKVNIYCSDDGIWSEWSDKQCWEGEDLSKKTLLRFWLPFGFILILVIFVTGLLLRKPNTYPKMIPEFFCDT
Test: flow cytometry control; cell line not stated

Flow Cytometry MFI [MFI]	Substance
90.4	2o Ab (secondary antibody alone, flow cytometry control)
21.4	Isotype Control (flow cytometry control) (antibody)
